Test results reported in US7083511.

Legend:
[1] = target: T1, GST-SGK (full length, wild type), O00141
T1 chain: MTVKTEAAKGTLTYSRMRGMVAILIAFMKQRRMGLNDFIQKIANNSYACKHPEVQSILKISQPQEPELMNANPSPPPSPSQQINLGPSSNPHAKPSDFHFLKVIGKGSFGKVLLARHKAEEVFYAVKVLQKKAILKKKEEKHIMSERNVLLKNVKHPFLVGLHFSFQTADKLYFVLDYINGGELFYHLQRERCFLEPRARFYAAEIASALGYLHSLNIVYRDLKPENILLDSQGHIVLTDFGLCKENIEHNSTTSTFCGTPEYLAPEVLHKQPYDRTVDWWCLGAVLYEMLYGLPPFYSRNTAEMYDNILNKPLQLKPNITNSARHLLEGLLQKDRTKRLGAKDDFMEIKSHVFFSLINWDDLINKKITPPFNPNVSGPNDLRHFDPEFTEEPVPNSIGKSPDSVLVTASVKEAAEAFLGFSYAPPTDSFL

[2] = target: GST-SGK with Lys127 mutated to Ala (kinase dead), O00141
[3] = target: GST-SGK with both Thr256 and Ser422 mutated to Ala, O00141
GST-SGK2α (wild type) = target: T2, GST-SGK2α (wild type)
T2 chain: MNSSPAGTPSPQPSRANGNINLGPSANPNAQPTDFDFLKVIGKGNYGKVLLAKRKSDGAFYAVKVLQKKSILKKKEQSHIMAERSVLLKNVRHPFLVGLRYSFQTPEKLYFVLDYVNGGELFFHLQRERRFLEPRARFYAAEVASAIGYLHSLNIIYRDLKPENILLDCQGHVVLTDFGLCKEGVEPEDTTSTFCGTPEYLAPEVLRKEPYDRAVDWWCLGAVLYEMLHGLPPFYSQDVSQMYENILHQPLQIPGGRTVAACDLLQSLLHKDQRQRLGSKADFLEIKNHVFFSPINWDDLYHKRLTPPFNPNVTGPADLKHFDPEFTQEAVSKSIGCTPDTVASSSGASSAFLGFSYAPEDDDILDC

GST-SGK3 (wild type) = target: T3, GST-SGK3 (wild type)
T3 chain: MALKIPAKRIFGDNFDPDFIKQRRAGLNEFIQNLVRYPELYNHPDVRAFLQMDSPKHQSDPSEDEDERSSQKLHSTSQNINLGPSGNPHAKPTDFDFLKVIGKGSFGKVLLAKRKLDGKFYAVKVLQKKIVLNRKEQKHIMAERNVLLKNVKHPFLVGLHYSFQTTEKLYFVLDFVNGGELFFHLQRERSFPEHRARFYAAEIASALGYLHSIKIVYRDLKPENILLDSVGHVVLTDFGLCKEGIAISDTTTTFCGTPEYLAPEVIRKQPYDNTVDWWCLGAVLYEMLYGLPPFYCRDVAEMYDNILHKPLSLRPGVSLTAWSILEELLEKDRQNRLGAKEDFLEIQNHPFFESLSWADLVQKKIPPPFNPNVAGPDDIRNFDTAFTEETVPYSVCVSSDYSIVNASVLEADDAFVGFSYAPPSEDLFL

[4] = target: GST-SGK[T256A/S422D], O00141
[5] = target: GST-ΔN-SGK(61-431)[S422D], O00141

Sequence of GST-PKBα, P31749 (P31749 whole entry, looked up): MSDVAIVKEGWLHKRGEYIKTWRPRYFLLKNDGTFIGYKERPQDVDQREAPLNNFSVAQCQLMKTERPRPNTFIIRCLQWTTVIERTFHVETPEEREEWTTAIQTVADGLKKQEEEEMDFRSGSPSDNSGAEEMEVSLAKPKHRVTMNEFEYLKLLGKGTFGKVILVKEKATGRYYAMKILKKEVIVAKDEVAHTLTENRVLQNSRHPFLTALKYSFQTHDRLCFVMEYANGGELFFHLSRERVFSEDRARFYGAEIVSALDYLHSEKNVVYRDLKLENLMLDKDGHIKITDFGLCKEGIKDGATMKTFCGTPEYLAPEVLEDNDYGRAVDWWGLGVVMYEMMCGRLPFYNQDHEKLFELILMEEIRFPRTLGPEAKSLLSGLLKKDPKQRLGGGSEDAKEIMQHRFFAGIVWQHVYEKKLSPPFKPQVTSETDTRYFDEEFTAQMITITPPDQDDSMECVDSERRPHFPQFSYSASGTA

B1: GST-PDK1 (protein)
chain: MARTTSQLYDAVPIQSSVVLCSCPSPSMVRTQTESSTPPGIPGGSRQGPAMDGTAAEPRPGAGSLQHAQPPPQPRKKRPEDFKFGKILGEGSFSTVVLARELATSREYAIKILEKRHIIKENKVPYVTRERDVMSRLDHPFFVKLYFTFQDDEKLYFGLSYAKNGELLKYIRKIGSFDETCTRFYTAEIVSALEYLHGKGIIHRDLKPENILLNEDMHIQITDFGTAKVLSPESKQARANSFVGTAQYVSPELLTEKSACKSSDLWALGCIIYQLVAGLPPFRAGNEYLIFQKIIKLEYDFPEKFFPKARDLVEKLLVLDATKRLGCEEMEGYGPLKAHPFFESVTWENLHQQTPPKLTAYLPAMSEDDEDCYGNYDNLLSQFGCMQVSSSSSSHSLSASDTGLPQRSGSNIEQYIHDLDSNSFELDLQFSEDEKRLLLEKQAGGNPWHQFVENNLILKMGPVDKRKGLFARRRQLLLTEGPHLYYVDPVNKVLKGEIPWSQELRPEAKNFKTFFVHTPNRTYYLMDPSGNAHKWCRKIQEVWRQRYQSHPDAAVQ
Question: Which results are given for B1?
Answer: maximal stoichiometry of phosphorylation by PDK1 (GST-PKBα, P31749): compared to 0.5 mol/mol for PKBα; increase of SGK activity (Crosstide assay) after phosphorylation by PDK1 [1]: phosphor-ylation was accompanied by a 10-fold increase in the basal activity; maximal stoichiometry of phosphorylation by PDK1 [1]: the maximal stoichiometry of phosphorylation that could be attained was 0.05 mol/mol; stoichiometry of phosphorylation at 1.5 µg/ml PDK1, 30 min [1]: close to 1 mol/mol for SGK1 and SGK3; phosphorylation by PDK1 [2]: This mutant was phosphorylated at the same rate, and to the same extent, as wild type SGK; reduction of phosphorylation by PDK1 [3]: reduced phosphorylation by 80-90%; stoichiometry of phosphorylation at 1.5 µg/ml PDK1, 30 min (GST-SGK2α (wild type)): 0.2 mol/mol for SGK2; activation and phosphorylation by PDK1, against wild type SGK2α (GST-SGK2α[S356D]): SGK2[Ser356Asp] was activated (FIG. 17B) and phosphorylated (FIG. 17E) by PDK1 much more effectively than wild type SGK2α; phosphate incorporated, 30 min with 1.5 µg/ml PDK1 and MgATP (GST-SGK2α[S356D]): incorporation of 1.2 and 1.3 mol phosphate per mol protein, respectively; phosphate incorporated, 30 min with 1.5 µg/ml PDK1 and MgATP (GST-SGK3 (wild type)): incorporation of 1.2 and 1.3 mol phosphate per mol protein, respectively; stoichiometry of phosphorylation at 1.5 µg/ml PDK1, 30 min (GST-SGK3 (wild type)): close to 1 mol/mol for SGK1 and SGK3; extent of phosphorylation by PDK1 (GST-SGK[S422A], O00141): The mutation of Ser422 to Ala did not affect the extent of phosphorylation of SGK by PDK1; reduction of the extent of activation by PDK1 (GST-SGK[S422A], O00141): reduced the extent of activation by 60%; rate of phosphorylation and activation by PDK1, against wild type (GST-SGK[S422D], O00141): stimulated the rate of phosphorylation (FIG. 5C) and activation (FIG. 5D) by PDK1 at least six-fold; reduction of phosphorylation by PDK1 [4]: phosphorylation by PDK1 was reduced by 80-90%; reduction of phosphorylation by PDK1 (GST-SGK[T256A], O00141): reduced phosphorylation by 80-90%; stoichiometry of phosphorylation by PDK1 [5]: phosphorylated by PDK1 to a stoichiometry of 0.6 mol/mol protein
